{"source": "paper PMC3664827", "tested_on": "Lsr2 (Mycobacterium tuberculosis)", "assay": "magnetic tweezers", "note": "pKd: −log10 of the molar value."}
{"substance": "lambda DNA 48,502 bp", "values": [{"measurement": "pKd", "result": 7.24}]}
